# Laboratory results as given in article PMC8636100, “Peptibody Based on FGFR1-Binding Peptides From the FGF4 Sequence as a Cancer-Targeting Agent” (Frontiers in Pharmacology, 2021).
# No end group written: not given here.
# T1: extracellular domain (ECD) of FGFR1 fused to the Fc domain of human IgG1 (UniProt P11362 22-376, HiLyte488 dye (labelled form, used for the membrane overlay of FGFs and the PepSpot assay))
# T1 construct: FGFR1 (fibroblast growth factor receptor 1), extracellular domain; Unlabelled in the pull-down (held on Protein A resin) and in SPR (amine-coupled); also called FGFR1-Fc; source: recombinant, produced as described previously (Sokolowska-Wedzina et al., 2014)
# T1 sequence (looked up): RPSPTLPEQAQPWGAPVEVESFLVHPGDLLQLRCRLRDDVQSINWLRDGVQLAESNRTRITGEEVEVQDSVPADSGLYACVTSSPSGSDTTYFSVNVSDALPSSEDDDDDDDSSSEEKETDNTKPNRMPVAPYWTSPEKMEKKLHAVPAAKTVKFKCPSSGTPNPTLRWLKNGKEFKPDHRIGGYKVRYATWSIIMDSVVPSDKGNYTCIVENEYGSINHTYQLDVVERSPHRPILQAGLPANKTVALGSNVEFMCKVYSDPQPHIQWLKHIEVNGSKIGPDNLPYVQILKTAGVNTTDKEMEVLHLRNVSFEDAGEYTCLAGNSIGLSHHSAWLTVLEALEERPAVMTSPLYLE
# B1: PepSpot peptide no. 20 of FGF4 (peptide)
# peptide: KNGKTKKGNRVSPTM
# modifications: also: covalently bound to cellulose-β-alanine membrane
# notes: source: synthetic peptide on cellulose membrane (PepSpot, JPT, Berlin)
# B2: PepSpot peptide no. 10 of FGF4 (peptide)
# peptide: LRRLYCNVGIGFHLQ
# modifications: also: covalently bound to cellulose-β-alanine membrane
# notes: also called peptide F4_3; 4_3; source: synthetic peptide on cellulose membrane (PepSpot, JPT, Berlin)
# B3: PepSpot peptide no. 21 of FGF4 (peptide)
# peptide: RVSPTMKVTHFLPRL
# modifications: also: covalently bound to cellulose-β-alanine membrane
# notes: also called peptide 21; source: synthetic peptide on cellulose membrane (PepSpot, JPT, Berlin)
# B4: PepSpot peptide no. 19 of FGF4 (peptide)
# peptide: KYPGMFIALSKNGKT
# modifications: also: covalently bound to cellulose-β-alanine membrane
# notes: also called peptide 19; source: synthetic peptide on cellulose membrane (PepSpot, JPT, Berlin)
# B5: PepSpot peptide no. 15 of FGF4 (peptide)
# peptide: SRFFVAMSSKGKLYG
# modifications: also: covalently bound to cellulose-β-alanine membrane
# notes: also called peptide 15; source: synthetic peptide on cellulose membrane (PepSpot, JPT, Berlin)
# B6: FGF4 (ligand, UniProt P08620 31-206, looked up)
# chain: APTAPNGTLEAELERRWESLVALSLARLPVAAQPKEAAVQSGAGDYLLGIKRLRRLYCNVGIGFHLQALPDGRIGGAHADTRDSLLELSPVERGVVSIFGVASRFFVAMSSKGKLYGSPFFTDECTFKEILLPNNYNAYESYKYPGMFIALSKNGKTKKGNRVSPTMKVTHFLPRL
# notes: FGF4; Denatured by SDS-PAGE and held on PVDF in the overlay; native analyte in SPR; also called recombinant FGF4; fibroblast growth factor 4; source: recombinant, provided by Marta Minkiewicz and Martyna Sochacka from Protein Engineering Group
# B7: peptibodyF4_3 (Fc fusion)
# chain: GLRRLYCNVGIGFHLQ
# notes: additional glycine residue as a spacer between the Fc domain and the targeting peptide; peptide F4_3, FGF4 residues 83-97; Peptide fused at the C-terminus of the Fc domain of human IgG1 (vector pLEV113); not shown: Fc (human IgG1), N-terminal, kept
# B8: peptibodyF4_1 (Fc fusion)
# chain: GIALSKNGKTKKGNRVSPTMKVTHFLPRL
# notes: additional glycine residue as a spacer between the Fc domain and the targeting peptide; peptide F4_1, FGF4 residues 179-206; Peptide fused at the C-terminus of the Fc domain of human IgG1 (vector pLEV113); Labelled with DyLite650 for flow cytometry; not shown: Fc (human IgG1), N-terminal, kept
# B9: chymotryptic peptide of FGF4, region 179–206 (peptide)
# peptide: IALSKNGKTKKGNRVSPTMKVTHFLPRL
# notes: FGF4 residues 179-206; also called peptide F4_1; 4_1; source: digest of recombinant FGF4 with immobilized bovine chymotrypsin
# B10: chymotryptic peptide of FGF4, region 136–150 (peptide)
# peptide: FVAMSSKGKLYGSPF
# notes: FGF4 residues 136-150; also called peptide F4_2; 4_2; source: digest of recombinant FGF4 with immobilized bovine chymotrypsin
# Biological target: T1, extracellular domain (ECD) of FGFR1 …
# Test: peptide or protein array; PepSpot: 15-residue peptides spanning FGF4 covalently bound to a cellulose membrane; blocked with 3% BSA in TBS-T; probed with HiLyte488-labelled FGFR1-Fc or Fc domain (0.1 µg/ml in blocking buffer) overnight at 4°C
# Conditions: both partners purified
row,binding result,Binder
1,binds,B1
2,binds,B2
3,binds,B3
4,binds,B4
5,binds,B5

# Biological target: T1, extracellular domain (ECD) of FGFR1 …
# Test: SPR; Biacore 3000, 25°C, PBS with 0.05% Tween20, 0.1% BSA, 0.02% NaN3, pH 7.4; FGFR1 ECD-Fc amine-coupled on CM5 at 8800 RU; peptibodies 0.15-4.8 μM or FGF4 75-600 nM injected at 30 μl/min; steady-state affinity analysis for the peptibodies
# Conditions: both partners purified
row,Kd [nM],Binder
1,65.7,B6
2,1090,B7
3,2990,B8

# Biological target: T1, extracellular domain (ECD) of FGFR1 …
# Test: affinity purification with mass spectrometry; chymotryptic peptides of FGF4 incubated 1 h at 4°C with ECD_FGFR1-Fc or, in parallel, Fc domain immobilized on rProtein A Fast Flow resin; washed (0.1 M NaCl, phosphate); eluted with 0.1 M sodium citrate pH 3.5; peptides identified by MS
# Conditions: both partners purified
row,binding result,Binder
1,binds,B9
2,binds,B10
